Reference: the nanobody polyreactivity screen of Harvey et al. (2022)

experiment: yeast display, Sf9 membrane polyspecificity reagent, FACS + sequencing; frameworks hold sequencing errors
In short: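 Nanobodies came from a synthetic yeast display library in Saccharomyces cerevisiae BJ5465, induced with galactose for 36–48 hours and stained for 1 hour at 4 °C with 10% biotinylated, detergent-solubilized Sf9 membrane reagent. Cells were enriched on streptavidin microbeads and then FACS-sorted, with low and high (top ~1%) gates set on anti-HA fluorescence for expression and streptavidin fluorescence for reagent binding. Each polyreactivity label reflects the gate a clone came from. Genes were amplified by colony PCR, sequenced by MiSeq 2 × 250 and filtered by CDR length.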

Question: With “QVQLVESRGALVQAGGSLRLSCAASGLILWVNAMGWNRQAPGKERELVAAISWSSGSTYYADSVKGRFTISRDNAKNTVYLQMNSLKPEASAVYYCAASVRRTGSICHYYYSGQGTQVTVSS” as the sequence, how does the “polyreactivity (PSR sort gate)” value read?
Answer: high polyreactivity

Question: With “QVQLVESRGCLVQAGVSLRLSCAASGSTFQSYAMGCYRQAPGKERELVAAISTSETDRTYYADSVKGRFTISRDNAKNTVYLQMISLKPEDTAVYYCNADGYSHGDWYGYWGQGTQVTVSS” as the sequence, how does the “polyreactivity (PSR sort gate)” value read?
Answer: low polyreactivity

Question: For “QVQLVESRGGLVKAGGSLRLSCAASGRIFRKYDMGWYRQAPGKERELVAAISGTGITYYADSVKGRFTISRDNAKNTVYLQMNRLKPEDTAVYYCARGSKPRAWSWAFASATSIYEYWGQGTQLTVSS”, which “polyreactivity (PSR sort gate)” value is on record?
Answer: low polyreactivity

Question: For “QVQLVESRGGLVQAGCSLRLSCAASGSIFLHKAMGWYRQAPGKERELVAVITSRGGSTYYADSVKGRFTISRDNAKITVYVQMNSLNPEDPAVYYCAAPDYHKRTSRGDYWGQGTQVTVSS”, which “polyreactivity (PSR sort gate)” value is on record?
Answer: low polyreactivity

Question: For “QVQLVESRGGLVQAGGSHRLSCAASGSIFGYYAMGWYRQAPGNERELVAAIRSTGSTNYADSVKGRFTISRDNAQNSVYLQMNSLKPVDTAVYYCAAGYITWGSGNWVVTPYDYWGQGTQVTVSS”, which “polyreactivity (PSR sort gate)” value is on record?
Answer: high polyreactivity

Question: For “QVQLVESRGGLVQAGGSHRLSCADAGYSNIANAMGSDRQAPGKERELVAAISIGGNTKYADSVKGRFTISRDNAKNTVYLQMNSLKPEDTAVYYCAVEDQYYSVSLGGEYDYWGQGTQVTVSS”, which “polyreactivity (PSR sort gate)” value is on record?
Answer: high polyreactivity

Question: Which “polyreactivity (PSR sort gate)” value does the source give for “QVQLVESRGGLVQAGGSLPLSCAASGSIFDRYAMGWYRQAPGKERELVAAISRSGGSTYYADSVKGRFTISRDNAKNTVYLQMNSLKPEDTAVYYCAARARSLYDYWGQGTQVTVSS” here?
Answer: high polyreactivity

Question: For “QVQLVESRGGLVQAGGSLRFSCAASGSTFRDYAMGGSRQAPGKERQVLAAISSTGGRTYYADSVKGRFTISRDNAKNTVYLQMNSLKPEDTAVYYCKAALYPSLDYGSASISKSYDYWGQGTQVTVSS”, which “polyreactivity (PSR sort gate)” value is on record?
Answer: high polyreactivity

Question: With “QVQLVESRGGLVQAGGSLRISCPDSGFTFTKNAMGWYRQAPGKERELVAAISRGRGRTYYADSVKGRFTISRDNAKNTVYFQMNSLIPEDTAVYYCNVDKVGPGYDYWGQGTQVTVSS” as the sequence, how does the “polyreactivity (PSR sort gate)” value read?
Answer: high polyreactivity

Question: With “QVQLVESRGGLVQAGGSLRLSCAASGFIFTRNAMGWYRQAHGKVRELVAAISYSGGSTYYADSVKGRFTISRDNAKNTVYLQMNSLKPEDTAVYYCNVSPTTSGDGGGYDSWGQGTLVTVSS” as the sequence, how does the “polyreactivity (PSR sort gate)” value read?
Answer: low polyreactivity

Question: With “QVQLVESRGGLVQAGGSLRLSCAASGFTLPANGMGWYRQAPGKERELVAAISFIAGSTYYADSVKGRFTISRDNEKNTVYFQMNSLKPEDTAVYYSATQFPPSSIYDYWGQGTQVTVSS” as the sequence, how does the “polyreactivity (PSR sort gate)” value read?
Answer: low polyreactivity

Question: Which “polyreactivity (PSR sort gate)” value does the source give for “QVQLVESRGGLVQAGGSLRLSCAASGIIFPRYAMGRYRQAPRKERELVAAITRRGGRTYYADSVKGRFTISRDNANNTVYLQMNSLKPEDTAVYYCNADFISTRPPKATDEDYWGQGTQVTVSS” here?
Answer: high polyreactivity

Question: For “QVQLVESRGGLVQAGGSLRLSCAASGITFPRYAMGWYRPAPGKERELVARITSGGRTNYADSVKGRFTISRDNAKNTVYLQMNSLKPEDTAFYYCNAVAQSGRYDYWGQGTQVTVSS”, which “polyreactivity (PSR sort gate)” value is on record?
Answer: high polyreactivity

Question: With “QVQLVESRGGLVQAGGSLRLSCAASGLIFTVNAMGWYRQAPGKERELVAAISQSGGSTYYADSVKGRFTISRDNAKNTVYLQMNSLKPEDTAVYYCAAKSDPYRHDYWGQGTQVTVSS” as the sequence, how does the “polyreactivity (PSR sort gate)” value read?
Answer: low polyreactivity

Question: Which “polyreactivity (PSR sort gate)” value does the source give for “QVQLVESRGGLVQAGGSLRLSCAASGRIFGDNAMGWSRQAPGKEREFVATINGSGGSTYYADSVKGRFTISRDNAKNTVYLQMNSLKPEDTAVYYCFVYGYVPYNYWGQGTQVTVSS” here?
Answer: low polyreactivity

Question: For “QVQLVESRGGLVQAGGSLRLSCAASGRIFRYNAMGWYRQAPGKERELVAAITWSGVSTYYADSVKGRFTISRDNAKNTGYLQMNSLKPEHTAVYYCNARRWPAWSSDDYWGQGTQVTVSS”, which “polyreactivity (PSR sort gate)” value is on record?
Answer: high polyreactivity

Question: Which “polyreactivity (PSR sort gate)” value does the source give for “QVQLVESRGGLVQAGGSLRLSCAASGRIFRYYAMGWYRQAPGTEREMVAAIRYRGASTYYADSVKGRFTISRDNAKNTVYLQMNSLKPEDTAVYYCAAYDYHPYRIVGASRSDYWGQGTQVTVSS” here?
Answer: high polyreactivity

Question: For “QVQLVESRGGLVQAGGSLRLSCAASGRIFSIYAMGWYRQAPGKERELVAAITNGGGSTYYADSVKGRFTISRDNAKNTVYLPMISLKPEDTAVYYCAARSPGGKNTKYYWGQGTQVTVSS”, which “polyreactivity (PSR sort gate)” value is on record?
Answer: high polyreactivity

Question: For “QVQLVESRGGLVQAGGSLRLSCAASGRIFSSYAMGWYRQAPGKERELVAAISSRGGSTYYADSVKGRFTISRDNAKNTVYLQMNSLKPDDTAVYYCARVKYSGVVYKYDYWGQGTQVTVSS”, which “polyreactivity (PSR sort gate)” value is on record?
Answer: high polyreactivity

Question: For “QVQLVESRGGLVQAGGSLRLSCAASGRILHFNAMGWYRQAPGKEREFVASISWSGGFTYYADSVKGRFTISRDNAKNTVYLQMNSLTPEDTAVYYCARGYGYGDHAMGYWGQGTQVTVSS”, which “polyreactivity (PSR sort gate)” value is on record?
Answer: high polyreactivity

Question: Which “polyreactivity (PSR sort gate)” value does the source give for “QVQLVESRGGLVQAGGSLRLSCAASGRTFDRNAMGWYRQAPGKERQFVAAITSRVGSTYYADSVKGLFTISRDTAKNTVYLQMNSQKPEDTAVYDCNKRYFGEQTWVGGDSWGQGTLVTVSS” here?
Answer: high polyreactivity

Question: For “QVQLVESRGGLVQAGGSLRLSCAASGRTFEYNAMGWYRQAPGKERELVATIRYSGTSTYADSVKGRFTISRDNAKNTVYLQMNSLKPEDTAVYYCAKQVRYYGYKYNYWGQGTQVTVSS”, which “polyreactivity (PSR sort gate)” value is on record?
Answer: high polyreactivity

Question: With “QVQLVESRGGLVQAGGSLRLSCAASGSIFLSYAMGWYRQAPGKERELVADISRSGGSTYYADSVKGRFTISRDNAKNTVYLQMNSLKPEDTAVYYCAVYIAVYEGDYWGQGSQVTVSS” as the sequence, how does the “polyreactivity (PSR sort gate)” value read?
Answer: low polyreactivity

Question: For “QVQLVESRGGLVQAGGSLRLSCAASGSIFRPYAMGWYRQAPGKERELVAAISSSGGSTYYADSVKGRFTISRDNAKNTVYLQMNSLKPEDTAVYYCAAESRSTWIHSRDYWGQGTQVTVSS”, which “polyreactivity (PSR sort gate)” value is on record?
Answer: low polyreactivity

Question: With “QVQLVESRGGLVQAGGSLRLSCAASGSIFYVYAMGWYRQAPAKERELVAAITSSGTTNYADSVKGRFTIPRDNAKNTVYLQMNSLKPEDTAVYYCAADPDSGQVPFDYWGQGTQVTVSS” as the sequence, how does the “polyreactivity (PSR sort gate)” value read?
Answer: low polyreactivity

Question: For “QVQLVESRGGLVQAGGSLRLSCAASGSTFDGNAMGWYRQAPGKERELVAAISIGGSTSYADSVKGRFTISRDNAKNTVYLQMNSLNPEDTAVYYCAADRYRTFYQWKRYRYDYWGQGTQVTVSS”, which “polyreactivity (PSR sort gate)” value is on record?
Answer: high polyreactivity

Question: Which “polyreactivity (PSR sort gate)” value does the source give for “QVQLVESRGGLVQAGGSLRLSCAASGSTFTHYAMGRYRHAPGKERELVAAISWGGGTTRYADSVKGRFTISRDNAKNSVYLQMNSLKPVDTAVYYCAKRVRTGSVGNFNYWGQGTQVSVSS” here?
Answer: high polyreactivity

Question: For “QVQLVESRGGLVQAGGSLRLSCAASGSTSYIYVMGWYRQAPGKERELVATISKNGGDTYADSVKGRFTISRDNAKNTVYLQMNSLKPEDTAVYYCYARAYLYNRRISSRYNYWGQGTQVTVSS”, which “polyreactivity (PSR sort gate)” value is on record?
Answer: high polyreactivity

Question: Which “polyreactivity (PSR sort gate)” value does the source give for “QVQLVESRGGLVQAGGSLRLSCAASRSTFGVNAMGWYRQAPGKERELVARISSGVRTYYADSVKGRFTISRDNAKNTVYLQMNSMIPEDTAVYYCAAVYFRGVDRAFLSYSYYYWGQGTQVTVSS” here?
Answer: high polyreactivity

Question: With “QVQLVESRGGLVQAGGSLRLSCAPSGLIFWAYARGWYRQAPGNERELVAAINWRGGSTYYADSVKGRFTISRDNAKNTVYLQMNSLKPEDTAVYYCAADSYYDEYDYWGQGTQVTVSS” as the sequence, how does the “polyreactivity (PSR sort gate)” value read?
Answer: low polyreactivity

Question: Which “polyreactivity (PSR sort gate)” value does the source give for “QVQLVESRGGLVQAGGSLRLSCDASGFIFTLYAMGWYRQAPGKERELVASIRGSGGNTYYADSVKGRFTISRDNAKNTVYLQMNSLKPEDTAVYYCAARTYRRPYSSWGQGTQVTVSS” here?
Answer: high polyreactivity
